Data as given in the supplement of paper PMC12338614.
± gives the uncertainty stated by the source.

B1: library; numbered along this chain (parent)
chain: MEVVDPQQLGMFTEGELMSVGMDTFIHRIDSTEVIYQPRRKRAKLIGKYLMGDLLGEGSYGKVKEVLDSETLCRRAVKILKKKKLRRIPNGEANVKKEIQLLRRLRHKNVIQLVDVLYNEEKQKMYMVMEYCVCGMQEMLDSVPEKRFPVCQAHGYFCQLIDGLEYLHSQGIVHKDIKPGNLLLTTGGTLKISDLGVAEALHPFAADDTCRTSQGSPAFQPPEIANGLDTFSGFKVDIWSAGVTLYNITTGLYPFEGDNIYKLFENIGKGSYAIPGDCGPPLSDLLKGMLEYEPAKRFSIRQIRQHSWFRKKHPPAEAPVPIPPSPDTKDRWRSMTVVPYLEDLHGADEDEDLFDIEDDIIYTQDFTVPGQVPEEEASHNGQRRGLPKAVCMNGTEAAQLSTKSRAEGRAPNPARKACSASSKIRRLSACKQQ

Variants of: B1
Test: STK11 functional score (HeLa growth suppression), rescaled enrichment; synonymous median = 1, nonsense median = 0 (normalised score)
Conditions: with HeLa; variant type: missense
How it was run: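 HeLa cells carrying an AAVS1 landing pad received codon-optimised STK11 libraries made by codon randomisation (POPCode), integrated by Bxb1, with three regions each transfected three times. Integrants that were BFP-negative and mCherry-positive were sorted by FACS 4–5 days after electroporation and then grown for about two weeks. Tiled amplicons from gDNA were sequenced on NextSeq at ~2 million reads per tile. The functional score is a wild-type-corrected log ratio of post- to pre-selection counts, rescaled to the synonymous and nonsense medians, merged across codons and replicate transfections, and given a bootstrapped error.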

Row | Variant | STK11 functional score
1 | D350Q | 1.49 ± 0.19
2 | K83E | 1.48 ± 0.68
3 | I356M | 1.21 ± 0.53
4 | Y60N | 0.674 ± 0.26
5 | Q220L | 0.714 ± 0.12
6 | Q220A | 1.3 ± 0.12
7 | K48P | 1.41 ± 0.45
8 | Y156P | 0.418 ± 0.19
9 | L400K | 0.775 ± 0.24
10 | R409F | 0.845 ± 0.4
11 | F148N | 0.0347 ± 0.095
12 | P222H | 0.314 ± 0.11
13 | A198G | 1.28 ± 0.11
14 | D355W | 1.57 ± 0.17
15 | G171N | 1.69 ± 0.14
16 | K269V | 1.22 ± 0.43
17 | K269I | 1.28 ± 0.17
18 | D23H | 1.22 ± 0.68
19 | E33I | 0.611 ± 0.19
20 | E33Y | 1.21 ± 0.2
21 | H27W | 0.807 ± 0.27
22 | N412C | 1.11 ± 0.1
23 | L195D | 1.64 ± 0.15
24 | H202E | 1.47 ± 0.23

Row | Variant | STK11 functional score
25 | I172P | -0.291 ± 0.062
26 | L113D | -0.168 ± 0.12
27 | C73E | 1.7 ± 0.41
28 | A225I | 1.42 ± 0.13
29 | I267G | 0.602 ± 0.3
30 | R426V | 1.62 ± 0.26
31 | N259E | 1.47 ± 0.34
32 | N259L | 1.26 ± 0.31
33 | N259Y | 1.1 ± 0.1
34 | Y292W | 0.686 ± 0.12
35 | Y292G | 1.45 ± 0.21
36 | Y292L | 0.546 ± 0.15
37 | G242I | -0.186 ± 0.099
38 | T189Y | 0.71 ± 0.92
39 | I29H | 0.0412 ± 0.14
40 | Q399D | 1.39 ± 0.34
41 | M139T | 1.18 ± 0.53
42 | P314C | 1.53 ± 0.18
43 | P314F | 1.18 ± 0.26
44 | Q8K | 0.838 ± 0.23
45 | K81P | 0.992 ± 0.18
46 | A417H | 0.849 ± 0.67
47 | Q123Y | 1.01 ± 0.22
48 | Q433H | 1.2 ± 0.34

Row | Variant | STK11 functional score
49 | P387R | 1.47 ± 0.31
50 | G196R | -0.0503 ± 0.77
51 | H379D | 1.18 ± 0.35
52 | G288S | 0.938 ± 0.2
53 | V143S | 1.44 ± 0.36
54 | P323V | 1.01 ± 0.11
55 | P323I | 1.52 ± 0.14
56 | L341Q | 1.59 ± 0.17
57 | L341S | 0.93 ± 0.16
58 | K146E | 1.14 ± 0.31
59 | L245C | 0.21 ± 0.093
60 | D277R | 1.34 ± 0.57
61 | P221Y | -0.0979 ± 0.12
62 | I361W | 1.62 ± 0.16
63 | E145V | 0.644 ± 0.079
64 | D207A | 1.27 ± 0.29
65 | E92F | 1.56 ± 0.53
66 | D327V | 1.31 ± 0.46
67 | Q214L | 1.05 ± 0.15
68 | P179A | 0.764 ± 0.091
69 | P373L | 1.13 ± 0.38
70 | E121Q | 1.08 ± 0.45
71 | L9R | 1.12 ± 0.2
72 | Y246P | -0.0491 ± 0.1

Row | Variant | STK11 functional score
73 | G52L | 1.37 ± 0.22
74 | L167D | -0.162 ± 0.094
75 | L105M | 1.18 ± 0.74
76 | P281A | 0.84 ± 0.1
77 | P281Q | 1.51 ± 0.31
78 | K78T | 0.086 ± 0.54
79 | F204D | 1.09 ± 0.12
80 | G58S | 0.988 ± 0.36
81 | W239A | 0.388 ± 0.093
82 | W239P | -0.0966 ± 0.095
83 | H168E | 1.3 ± 0.24
84 | K235N | 0.877 ± 0.28
85 | K235P | 1.65 ± 0.36
86 | I303C | 0.545 ± 0.16
87 | K178G | 0.325 ± 0.098
88 | E357L | 1.54 ± 0.31
89 | E223R | 0.921 ± 0.41
90 | D176A | -0.0851 ± 0.1
91 | M125R | 0.355 ± 0.099
92 | Y166G | 1.23 ± 0.34
93 | Y166S | 0.964 ± 0.3
94 | Q364Y | 1.53 ± 0.17
95 | Q364A | 1.53 ± 0.15
96 | C134R | 1.52 ± 0.09

Row | Variant | STK11 functional score
97 | T367I | 1.38 ± 0.23
98 | V197G | 0.372 ± 0.21
99 | Y261C | 0.999 ± 0.41
100 | Y261S | 0.699 ± 0.16
101 | C132E | 1.06 ± 0.36
102 | V320C | 0.788 ± 0.12
103 | P144S | 0.825 ± 0.15
104 | L344I | 1.13 ± 0.43
105 | Q305H | 0.99 ± 0.61
106 | P315R | 1.32 ± 0.17
107 | P315L | 1.42 ± 0.18
108 | P315W | 0.723 ± 0.21
109 | L54Y | 1.47 ± 0.19
110 | L282G | 0.43 ± 0.11
111 | P411A | 1.04 ± 0.31
112 | M51K | 1.32 ± 0.35
113 | S307P | 1.57 ± 0.27
114 | G180T | 1.53 ± 0.19
115 | G180R | 0.948 ± 0.5
116 | A76F | 0.0284 ± 0.091
117 | C278D | 1.03 ± 0.54
118 | C278G | 1.08 ± 0.34
119 | L353Y | 1.4 ± 0.4
120 | F12L | 1.23 ± 0.68

Row | Variant | STK11 functional score
121 | L164P | -0.0524 ± 0.1
122 | I300G | 0.368 ± 0.12
123 | M289G | -0.0773 ± 0.11
124 | H174C | 0.891 ± 0.41
125 | L102H | 1.61 ± 0.3
126 | S213I | 0.902 ± 0.14
127 | S213R | 1.04 ± 0.3
128 | S213N | 1.65 ± 0.19
129 | T185P | 0.0618 ± 0.18
130 | E375W | 1.54 ± 0.31
131 | M18G | 1.36 ± 0.22
132 | D359V | 1.05 ± 0.17
133 | V390R | 1.4 ± 0.26
134 | S69K | 1.31 ± 0.084
135 | K403A | 1.6 ± 0.27
136 | K403R | 1.03 ± 0.69
137 | G15P | 1.66 ± 0.28
138 | P319C | 0.642 ± 0.073
139 | E293W | 1.07 ± 0.23
140 | V4E | 1.09 ± 0.6
141 | Y126T | -0.0466 ± 0.081
142 | Q112G | 0.967 ± 0.13
143 | Q112W | 0.604 ± 0.081
144 | S283G | 1.19 ± 0.11

Row | Variant | STK11 functional score
145 | G10I | 1.64 ± 0.13
146 | P217H | 0.332 ± 0.43
147 | P217A | 1.25 ± 0.66
148 | P6D | 1.66 ± 0.16
149 | F366I | 1.08 ± 0.28
150 | E138W | 1.19 ± 0.16
151 | G61W | 0.248 ± 0.097
152 | L427N | 1.63 ± 0.25
153 | Y36W | -0.265 ± 0.082
154 | G276S | 1.42 ± 0.27
155 | L182G | 0.327 ± 0.12
156 | D115W | 0.727 ± 0.26
157 | I224K | 1.19 ± 0.26
158 | V110G | 0.297 ± 0.079
159 | R333K | 1.61 ± 0.39
160 | K311A | 1.61 ± 0.15
161 | R405D | 0.895 ± 0.18
162 | R405Y | 0.397 ± 0.55
163 | E342I | 1.42 ± 0.26
164 | W332M | 1.42 ± 0.27
165 | K329P | 1.47 ± 0.2
166 | L45V | 0.939 ± 0.17
167 | L45I | 0.969 ± 0.33
